B1: CHK-166 (mouse monoclonal antibody) (antibody, V domains shown)
VH: EVRLVESGGGLEQPGGSLKLSCAASGFTFSDYFMYWVRQTPEKRLEWVAYISNGGISTFYSDAVKGRFTISRDNARNTLYLQMSRLKSEDTAIYYCVRQVYGQGYFDYWGQGTTLAVSS
VL: QIVLIQSPAIMSASLGERVTMTCTASSSVSSSYLHWYQQKPGSSPKLWIYSSFSLASGVPARFSGSGSGTSYSLTISTMEAEDAATYYCHQYLRSPWTFGGGSKLEIK
B2: CHK-263 (mouse monoclonal antibody) (antibody, V domains shown)
VH: QVQLQQSGAELVKPGASVKISCKASGYAFSSYWMNWVKQRPGKGLEWIGQIYPGDGDTNYNGKFKGKATLTADKSSSTAYMQLSSLTSEDSAVYFCARGGLTIDYWGQGTTLTVSS
VL: DIVLTQSPATLSVTPGDSVSLSCRASQSISDNLHWYQQKSHESPGLLIKYASQSISGIPSRFSGSGSGTDFTLSINSVETEDFGMYFCQQSNSWPYTFGGGTKLEIK
B3: CHK-102 (mouse monoclonal antibody) (antibody, V domains shown)
VH: QVQLQQSGAELVKPGASVKISCKTSGYAFSSFWMHWVKQRPGKGLEWIGQIYPGDGDTNYNGKFKDKATLTADKSSNTAYMQLTSLTSEDSAVYFCARNLLFDYWGQGTTLTVSS
VL: EILMTQSPAILSVSPGERVSFSCRASQSIGSNIHWYQQRTNGSPRLLIKYASESISGIPSRFSGSGSGTDFTLSINSVESEDIADYYCQQNNIWPFTFGSGTKLEIK
B4: CHK-152 (mouse monoclonal antibody) (antibody, V domains shown)
VH: QVQLQQPGAALVKPGASAMMSCKASGYTFTSYWITWVKQRPGQGLEWIGDIYPGTGRTIYKEKFKTKATLTVDTSSSTAFMQLNSLTSEDSAVYYCARGYGSPYYALDYWGQGTSVTVSS
VL: DIVLTQSPASLAVSQGQRATISCKASQSVDYDGDSYVNWYQQKPGQSPKLLIYDASNLESGIPARFSGSGSGTDFTLNIHPVEEEDVATYYCQESNEDPRTFGGGTKLEIK
notes: mouse VH of CHK-152; mouse IgG heavy-chain constant region; mouse VL of CHK-152; mouse light-chain constant region; also called murine CHK-152; mouse CHK-152

The binders below were run against CHIKV pE2-E1 (E3-E2-E1) of the CHIKV-LR strain (Chikungunya virus La Reunion 2006 OPY-1 …, strain) (assay: cell-based or functional assay). Conditions: not given.
B1 was tested, and the “EC50 of neutralisation of CHIKV-LR (FRNT on NIH 3T3 cells)” value (from here on “EC50 … (FRNT on NIH 3T3 cells)”) was 202 ng/mL, the “EC50 of neutralisation of CHIKV-LR (FRNT on Vero cells)” value (from here on “EC50 … (FRNT on Vero cells)”) was 154 ng/mL and the “EC90 of neutralisation of CHIKV-LR (FRNT on Vero cells)” value (shortened to “EC90 of neutralisation of CHIKV-LR”) was 8600 ng/mL.
For B2, the “EC50 … (FRNT on NIH 3T3 cells)” value was 2 ng/mL, the “EC50 … (FRNT on Vero cells)” value was 5 ng/mL and the “EC90 of neutralisation of CHIKV-LR” value was 136 ng/mL.
B3 was tested, and the “EC50 … (FRNT on NIH 3T3 cells)” value was 30 ng/mL, the “EC50 … (FRNT on Vero cells)” value was 14 ng/mL and the “EC90 of neutralisation of CHIKV-LR” value was 351 ng/mL.
B4 was tested, and the “EC50 … (FRNT on NIH 3T3 cells)” value was 1 ng/mL, the “EC50 … (FRNT on Vero cells)” value was 2 ng/mL and the “EC90 of neutralisation of CHIKV-LR” value was 10 ng/mL.

These binders were tested against T1, CHIKV 181-25 virion (Chikungunya virus, strain 181/25 …, UniProt Q88628, strain) (assay: ELISA; virion capture competition ELISA: plates coated with 5 µg/ml CHK-65, 3x10^6 FFU of CHIKV 181-25 captured, incubated with mouse MAbs for one hour, washed, then 125 ng/ml hu-CHK-152, detected with biotin-labeled goat anti-human antibody and HRP-streptavidin). Conditions: one partner purified.
T1 construct: E2 envelope glycoprotein of Chikungunya virus strain 181-25, on virions; E1 envelope glycoprotein of Chikungunya virus strain 181-25, on virions; Whole virus particle captured on the plate by the MAb CHK-65; the capsid protein inside the particle is not written as a chain; also called CHIKV virion; virions; copies: 240 + 240
B4: binds.

Source: article PMC3630103, “Development of a Highly Protective Combination Monoclonal Antibody Therapy against Chikungunya Virus” (PLoS Pathogens, 2013)
